Measurements taken from patent US20030095983A1 (ZymoGenetics, published 2003).
Values belong to the binder of their own block, whether it stands above or below them.

Tests used:
[1] = target: TSH receptor (TSHR) on primary human adipocytes (human, UniProt P16473 21-764); test: cell-based or functional assay
[2] = target: TSH receptor (TSHR) on differentiated murine 3T3 L1 adipocytes (murine, UniProt P47750 22-764); test: cell-based or functional assay
[3] = target: T1, glycoprotein hormone beta 5 (GPHB5), human, beta subunit of CGH (human, UniProt Q86YW7 25-130); test: co-expression in CHO cells; secreted heterodimer
T1 construct: Secreted from CHO 180 cells
T1 sequence: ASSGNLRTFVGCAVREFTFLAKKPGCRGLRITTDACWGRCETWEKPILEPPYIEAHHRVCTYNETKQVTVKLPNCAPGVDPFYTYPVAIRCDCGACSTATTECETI

Sequence of TSH receptor (TSHR) on differentiated murine 3T3 L1 adipocytes (P47750 22-764): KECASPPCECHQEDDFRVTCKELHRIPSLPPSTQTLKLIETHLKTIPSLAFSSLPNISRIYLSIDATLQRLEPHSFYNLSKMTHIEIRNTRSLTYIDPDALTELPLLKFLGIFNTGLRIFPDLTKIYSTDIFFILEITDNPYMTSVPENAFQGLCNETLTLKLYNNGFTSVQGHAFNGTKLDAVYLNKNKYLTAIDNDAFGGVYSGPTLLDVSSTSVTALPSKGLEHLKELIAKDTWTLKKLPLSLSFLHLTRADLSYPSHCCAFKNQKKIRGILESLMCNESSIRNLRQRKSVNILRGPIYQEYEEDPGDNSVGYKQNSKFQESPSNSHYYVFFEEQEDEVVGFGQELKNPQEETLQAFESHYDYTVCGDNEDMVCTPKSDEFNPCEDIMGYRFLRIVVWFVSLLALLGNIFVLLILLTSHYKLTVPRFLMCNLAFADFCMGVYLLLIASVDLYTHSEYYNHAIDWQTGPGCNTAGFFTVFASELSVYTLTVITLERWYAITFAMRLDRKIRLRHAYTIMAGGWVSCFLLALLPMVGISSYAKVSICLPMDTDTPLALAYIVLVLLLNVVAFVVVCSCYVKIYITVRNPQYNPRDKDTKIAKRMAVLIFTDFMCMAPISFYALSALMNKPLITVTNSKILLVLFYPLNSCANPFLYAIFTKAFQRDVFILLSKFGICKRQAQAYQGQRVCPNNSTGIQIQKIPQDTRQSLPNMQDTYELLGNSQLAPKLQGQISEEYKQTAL
Sequence of TSH receptor (TSHR) on primary human adipocytes (P16473 21-764): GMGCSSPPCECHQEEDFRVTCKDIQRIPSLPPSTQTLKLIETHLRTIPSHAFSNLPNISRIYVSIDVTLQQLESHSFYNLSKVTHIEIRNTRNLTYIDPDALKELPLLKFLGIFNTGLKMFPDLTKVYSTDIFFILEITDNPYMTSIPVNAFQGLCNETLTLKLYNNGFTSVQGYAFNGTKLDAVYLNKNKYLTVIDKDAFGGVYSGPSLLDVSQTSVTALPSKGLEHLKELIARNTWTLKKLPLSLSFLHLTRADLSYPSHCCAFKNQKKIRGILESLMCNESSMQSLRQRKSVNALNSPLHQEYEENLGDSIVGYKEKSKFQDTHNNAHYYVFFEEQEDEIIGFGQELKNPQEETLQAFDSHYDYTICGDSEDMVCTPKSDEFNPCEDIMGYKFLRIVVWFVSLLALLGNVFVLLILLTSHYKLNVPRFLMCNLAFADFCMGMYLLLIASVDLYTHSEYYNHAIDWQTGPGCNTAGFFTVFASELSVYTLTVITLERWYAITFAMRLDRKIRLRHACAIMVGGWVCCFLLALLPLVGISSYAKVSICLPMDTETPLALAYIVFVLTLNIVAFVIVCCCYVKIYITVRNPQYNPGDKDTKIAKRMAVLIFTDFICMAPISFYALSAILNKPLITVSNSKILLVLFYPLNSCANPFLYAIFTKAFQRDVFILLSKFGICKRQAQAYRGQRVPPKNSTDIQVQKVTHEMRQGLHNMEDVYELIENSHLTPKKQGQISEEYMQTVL

induction of the reporter gene (CRE-luciferase reporter, cAMP) [1]: 14 fold
induction of luciferase expression (CRE-luciferase reporter, cAMP) [2]: 27 fold
B1: corticotroph-derived glycoprotein hormone (CGH), human recombinant, non-covalent heterodimer of GPHA2 and GPHB5 (ligand)
chain 1: QEAVIPGCHLHPFNVTVRSDRQGTCQGSHVAQACVGHCESSAFPSRYSVLVASGYRHNITSVSQCCTISGLKKVKVQLQCVGSRREELEIFTARACQCDMCRLSRY
chain 2: T1 sequence

binding result [3]: binds
B2: glycoprotein hormone alpha2 (GPHA2), human, alpha subunit of CGH (ligand)
chain: B1 chain 1
notes: Secreted from CHO 180 cells; also called Zsig51
